Data as given in IntAct's records for PubMed 17698606.

B1: S phase cyclin A-associated protein in the endoplasmic reticulum (Homo sapiens), Q9BY12 (parent)
chain: MMASFQRSNSHDKVRRIVAEEGRTARNLIAWSVPLESKDDDGKPKCQTGGKSKRTIQGTHKTTKQSTAVDCKITSSTTGDKHFDKSPTKTRHPRKIDLRARYWAFLFDNLRRAVDEIYVTCESDQSVVECKEVLMMLDNYVRDFKALIDWIQLQEKLEKTDAQSRPTSLAWEVKKMSPGRHVIPSPSTDRINVTSNARRSLNFGGSTGTVPAPRLAPTGVSWADKVKAHHTGSTASSEITPAQSCPPMTVQKASRKNERKDAEGWETVQRGRPIRSRSTAVMPKVSLATEATRSKDDSDKENVCLLPDESIQKGQFVGDGTSNTIESHPKDSLHSCDHPLAEKTQFTVSTLDDVKNSGSIRDNYVRTSEISAVHIDTECVSVMLQAGTPPLQVNEEKFPAEKARIENEMDPSDISNSMAEVLAKKEELADRLEKANEEAIASAIAEEEQLTREIEAEENNDINIETDNDSDFSASMGSGSVSFCGMSMDWNDVLADYEARESWRQNTSWGDIVEEEPARPPGHGIHMHEKLSSPSRKRTIAESKKKHEEKQMKAQQLREKLREEKTLKLQKLLEREKDVRKWKEELLDQRRRMMEEKLLHAEFKREVQLQAIVKKAQEEEAKVNEIAFINTLEAQNKRHDVLSKLKEYEQRLNELQEERQRRQEEKQARDEAVQERKRALEAERQARVEELLMKRKEQEARIEQQRQEKEKAREDAARERARDREERLAALTAAQQEAMEELQKKIQLKHDESIRRHMEQIEQRKEKAAELSSGRHANTDYAPKLTPYERKKQCSLCNVLISSEVYLFSHVKGRKHQQAVRENTSIQGRELSDEEVEHLSLKKYIIDIVVESTAPAEALKDGEERQKNKKKAKKIKARMNFRAKEYESLMETKNSGSDSPYKAKLQRLAKDLLKQVQVQDSGSWANNKVSALDRTLGEITRILEKENVADQIAFQAAGGLTALEHILQAVVPATNVNTVLRIPPKSLCNAINVYNLTCNNCSENCSDVLFSNKITFLMDLLIHQLTVYVPDENNTILGRNTNKQVFEGLTTGLLKVSAVVLGCLIANRPDGNCQPATPKIPTQEMKNKPSQGDPFNNRVQDLISYVVNMGLIDKLCACFLSVQGPVDENPKMAIFLQHAAGLLHAMCTLCFAVTGRSYSIFDNNRQDPTGLTAALQATDLAGVLHMLYCVLFHGTILDPSTASPKENYTQNTIQVAIQSLRFFNSFAALHLPAFQSIVGAEGLSLAFRHMASSLLGHCSQVSCESLLHEVIVCVGYFTVNHPDNQVIVQSGRHPTVLQKLCQLPFQYFSDPRLIKVLFPSLIAACYNNHQNKIILEQEMSCVLLATFIQDLAQTPGQAENQPYQPKGKCLGSQDYLELANRFPQQAWEEARQFFLKKEKK

Variants of: B1
Details: with cdk2_human CDK2, P24941

Row | Variant | effect of a mutation on the interaction
1 | R678A;L680A | with no effect
2 | R199A;S200A;L201A | disrupting interaction strength
3 | R26A;N27A;L28A | with no effect
